Measurements from patent publication US20150266963A1 (ARGEN X B V, published 2015).
Substitutions are numbered along the chain they refer to. Blank lines part the entries; values can stand above or below the binder they belong to.

How the values were obtained:
[1] = target: T1, rhesus recombinant CD70 (FLAG-TNC-rhesus CD70) (rhesus); assay: Biacore; rhesus recombinant CD70 on chip; Fab injected
T1 construct: also called rhesus Flag-TNC-CD70

[2] = target: T2, recombinant human CD70 (Flag-TNC-CD70) (human, UniProt P32970 39-193); assay: inhibition ELISA: Flag-TNC-CD70 captured by anti-Flag mAb, Fab titrated, remaining binding of CD27-Fc detected
T2 construct: extracellular domain; Captured by anti-Flag mAb in ELISA; as 'recombinant human CD70' immobilised on Biacore CM5 chips; TNC is for trimerisation; also called recombinant CD70; human recombinant CD70; not shown: Flag tag and TNC trimerisation domain
T2 sequence (looked up): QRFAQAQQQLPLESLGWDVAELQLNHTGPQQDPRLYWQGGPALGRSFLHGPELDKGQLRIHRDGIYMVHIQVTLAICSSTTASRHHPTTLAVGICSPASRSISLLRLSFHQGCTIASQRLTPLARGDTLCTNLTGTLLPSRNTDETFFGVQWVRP
Protocol: (§1) From selected phage transfected into TG1, individual colonies were picked randomly for growth in 96 well plates. After IPTG induction according to standard protocols periplasmic fractions (penis) containing Fabs were prepared. […] In this assay, Flag-TNC-CD70 is captured by an anti-Flag mAb and binding of CD27-Fc is detected via a biotinylated anti-CD27 mAb and strep-HRP in the absence or presence of CD70 Fabs (FIGS. 2 and 3) or CD70 mAbs (FIG. 4). In FIG. 2B it can be seen that 27B3, which has an identical VH as 9D1, but contains a somewhat different light chain, seems to block binding of CD27 to CD70 more efficiently, which was in line with the better off rate of this Fab as measured on Biacore (data not shown). Table 3 indicates the blocking potency (expressed as IC50) for the various llama-human chimeric mAbs tested in the CD70 inhibition ELISA. […] FIG. 3 is a composite of an experiment testing llama CD70 Fabs for blocking activity (in the inhibition ELISA, see white bars) and for CD70 binding (binding ELISA, black bars). For the binding ELISA, Flag-TNC-CD70 is captured by an anti-Flag mAb and binding of the Fabs is detected using an anti-myc-HRP mAb, which recognizes the MYC tag fused to the C-terminus of the Fd fragment. For comparison purposes, known monoclonal antibodies to CD70 (SGN70 described in US 2010/0129362 A1, clone 1F6; and MDX69A7 described in WO2008/074004 FIGS. 5A and 5B) were tested in parallel. […] Of interest is clone 59D10, which as Fab has no blocking activity, but when converted into a chimeric IgG was antagonistic (see Table 3). Amino acid sequences of the VH and VL domains of binding and blocking llama-derived Fab clones are shown elsewhere herein (Tables 6-9).

[3] = target: T2, recombinant human CD70 (Flag-TNC-CD70); assay: Biacore; recombinant human CD70 on CM5 chip; Fab injected
Protocol: Off-rates of the purified llama-derived anti-CD70 blocking Fabs were determined using the Biacore. Recombinant human CD70 was immobilized on a CM5 Biacore chip. The immobilization was performed in accordance with a method provided by Biacore and by using the NHS/EDC kit (Biacore AB): after activation of the chip, a solution of 50 μg/ml of recombinant CD70 in 10 mM acetate buffer with pH of 5 was prepared and 1 μl of this solution (50ng) was injected resulting in a surface density of approximately 1000 RU.
Fabs for the CD70 mAbs ARGX-110, MDX2H5 and SGN70 were prepared by […] digestion (SGN70 and MDX69A7 are described elsewhere herein, MDX2H5, also referred to as MDX1411, is described in WO2008/074004 FIGS. 1A and 1B). Fabs, at a concentration of approximately 100-400 μg/ml, were diluted 6-fold in hepes-buffered saline (0.1M Hepes, 1.5M NaCl, 30 mM EDTA, 0.5% v/v surfactant P20). They were injected (30 μl) and passed through the flow cells at a flow rate of 30 μl/min. After binding of the Fab to CD70, the off-rate was monitored for a period of 10 minutes. After the dissociation, the flow cell surfaces were regenerated by injecting 5 μl of 10 mM NaOH. Sometimes multiple injections of NaOH were needed to regenerate the surfaces depending on the affinity of the Fabs. Off-rate analysis was done by applying the BIAevaluation software. First, the sensogram of the blank runs were subtracted from those obtained with the coated flow cell. […] Moreover, the off-rate of CD27 for CD70 was determined as well.

[4] = target: T3, human CD70 expressed on the surface of cells (human, UniProt P32970 1-193); assay: cell-based or functional assay
T3 sequence (looked up): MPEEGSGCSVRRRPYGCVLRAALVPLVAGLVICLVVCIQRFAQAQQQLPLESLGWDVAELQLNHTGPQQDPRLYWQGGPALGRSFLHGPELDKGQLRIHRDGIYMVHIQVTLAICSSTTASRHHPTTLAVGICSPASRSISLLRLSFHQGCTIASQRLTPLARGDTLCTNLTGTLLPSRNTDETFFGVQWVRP

[5] = target: T2, recombinant human CD70 (Flag-TNC-CD70); assay: inhibition ELISA; Flag-TNC-CD70 captured by anti-Flag mAb; competitor CD27-Fc
Protocol: as §1

- koff [1]: 0.00032 s⁻¹
B1: 1C2 Fab (Fab, V domains shown)
VH: ELQVVESGGGLVQPGGSLRLSCAASGFTLSNYWMHWVRQAPRKGLEWVSTISTDNSRTYYADSVKGRFTISRDHAKNTLILQMNSLKSEDTAVYYCIRGSDYEHWGQGTQVTVSS
VL: QTVVTQEPSLSVSPGGTVTLTCGLSSGSVTTTNYPGWFQQTPGQAPRTLIYSTSSRHSGVPSRFSGSISGNKAALTITGAQPEDEADYYCALEEIGSYTYMFGGGTHLTVLG
notes: Llama-derived Fab

- koff [1]: 0.0005 s⁻¹
- IC50 (read off the curve) [2]: ~0.2 µg/mL
- koff [3]: 8e-05 s⁻¹
B2: 5F4 Fab (Fab, V domains shown)
VH: EVQVQESGGGLVHPGGSLKLSCAASGFTFDTYAMSWVRQAPGKGLEWVSAISWSGGETFYAESMKGRFTISRNNAKNTLYLQMNSLKSEDTAVYYCARGMGLAEGLTDWGQGTQVTVSS
VL: QAVVTHPPSLSASPGSSVRLTCTLISGDNIGGYDISWYQQKTGSPPRYLLYYYSDSYKHQSSGVPSRFSGSKDASANAGLLLISGLQSEDEADYYCSAYKSGSYKAPVFGGGTHLTVLG
notes: Llama-derived Fab

- koff [1]: 4e-05 s⁻¹
- koff [3]: 0.0001 s⁻¹
B3: 57B6 Fab (Fab, V domains shown)
VH: QLQLVESGGGLVQPGGSLRLSCAASGFSFSHYAMSWVRQAPGKGLEWVSGDNTYDGGTRYQDSVKGRFTISRDNGKNTLYLQMNSLKPEDTAVYYCAKDTGRGIMGEYGMDYWGKGTLVTVSS
VL: QTVVTQEPSLSVSPGGTVTLTCGLKSGSVTSSNYPAWYQQTPGQAPRLLIYNTNSRHSGVPSRFSGSISGNKAALTITGAQPEDEADYYCALYMGSGSANAMFGGGTHLTVLG
notes: Llama-derived Fab

- koff [1]: 0.00029 s⁻¹
- IC50 (read off the curve) [2]: ~1 nM
- koff [3]: 0.00033 s⁻¹
B4: 4D2 Fab (Fab, V domains shown)
VH: QVQLQESGPGLVKPSQTLSLACTVSGGSITTSYYYWSWIRQPPGKGLEWMGAIGSRGSTYYSPSLKTRTSISRDTSKNQFTLQLSSVTPEDTAVYYCARVTGEITYNSGSYYYTLNLFDYWGQGTQVTVSS
VL: QSVLTQPPSLSASPGSSVRLTCTLSSGNSVGNYDISWYQQKAGSPPRYLLYYYSDSYKNQGSGVPSRFSGSKDPSANAGLLLISGLQAEDEADYYCSVSNSGTYKPVFGGGSKLTVLG
notes: Llama-derived Fab

- IC50 (ng/ml), IL-8 secretion in Raji / HT1080-CD27 co-culture assay [4]: 19 ng/mL
- IC50 [5]: 0.092 µg/mL
B5: 5B2 chimeric llama-human mAb (antibody, human IgG1, V domains shown)
VH: QVQLVESGGDLVQPGGSLRLSCAASGFTVSNPAMSWVRQAPGKGLEWVSEITNYGYNRYYADSVKGRFTISTDNAKNTLYLQMNSLRSEDSAVYYCTASLGLEYGYGDWGQGTQVTVSS
VL: QSALTQPPSVSGTLGKTLTISCAGTSSDVGYGNYVSWYQQLPGTAPKLLIYRVSTRASGMPDRFSGSKSGNTASLTISGLQSEDEADYYCASYTTNNKPVFGGGTHLTVLG

- IC50 (read off the curve) [2]: ~2 nM
B6: 5B2 (Fab, V domains shown)
VH: B5 VH
VL: B5 VL
notes: also called 5B2 Fab

- koff [1]: 0.00061 s⁻¹
- IC50 (read off the curve) [2]: ~4 nM
- koff [3]: 0.00028 s⁻¹
B7: 9B2 Fab (Fab, V domains shown)
VH: QLQVVESGGGLMQPGGSLRLSCAASGFTFSGSAMSWVRQAPGKGLEWVSSIYSHSMYTYYADSVKSRFTISTDNAKNTLYLQMNSLKPDDTAVYYCAASSDYEGLFVSWGQGTQVTVSS
VL: QAVLTQPPSLSASPGSSVRLTCTLNSANSVGSYDISWYQQKAGSPPRYLLYYYSDSLSHQGSGVPSRFSGSTDASANAGLLLISGLQPEDEADYYCSAYNRGSHVFGGGTKLTVLG
notes: Llama-derived Fab

- koff [1]: 0.00018 s⁻¹
- IC50 (read off the curve) [2]: ~2 nM
- koff [3]: 0.00018 s⁻¹
B8: 9G2 Fab (Fab, V domains shown)
VH: B7 VH with L2V, V4L, G31S, H54D, M56S, A98G, L105S, V107A
VL: B7 VL with A2S, L4V, N25S, A27G, S32N, L57V, S58K, T72S, N100K, R101S
notes: Llama-derived Fab

- IC50 (read off the curve) [2]: ~0.04 µg/mL
- koff [3]: 8e-05 s⁻¹
B9: 19G10 Fab (Fab, V domains shown)
VH: EVQLQESGGGVVQPGGSLRLSCAASGFTFDDYAMSWVRQAPGKGLEWVSSIYMYDSSTYYADSVKGRFTISTDNAKNTVYLQMNSLKSEDTAVYYCAKDINRSYGSSWSHFGPIFSSWGQGTQVTVSS
VL: NFMLTQPSAVSVSLGQTARITCQGGYYTHWYQQKPGQAPVLVIYVNNNRPSGIPERFSGSSSGNTATLTISGAQAEDEAAYYCQSGSSSTIPVFGGGTKLTVLG
notes: Llama-derived Fab

- koff [1]: 0.0002 s⁻¹
- koff [3]: 0.00019 s⁻¹
B10: 9E1 Fab (Fab, V domains shown)
VH: B9 VH
VL: QAVVTQEPSLSVSPGGTVTLTCGLTSGSVTSSNYPDWYQQTPGQAPRLLIYNTNSRHSGVPSRFSGSISGNKAALTITGAQPEDEADYYCNLYMGSGGSKVFGGGTKLTVLG
notes: Llama-derived Fab

- IC50 (read off the curve) [2]: ~0.04 µg/mL
- koff [3]: 0.0001 s⁻¹
B11: 24B6 Fab (Fab, V domains shown)
VH: B9 VH
VL: B9 VL with N1Q, F2P, M3V, V45I, S61I, A75V, A80D
notes: Llama-derived Fab

- koff [1]: 0.0002 s⁻¹
- IC50 (read off the curve) [2]: ~0.2 µg/mL
- koff [3]: 0.00048 s⁻¹
B12: 9D1 Fab (Fab, V domains shown)
VH: EVQLVESGGGLVQPGGSLRLSCAASGFTFSVYYMNWVRQAPGKGLEWVSDINNEGGTTYYADSVKGRFTISRDNAKNTLTLQMNSLKPEDTALYYCVRDAGYSNHVPIFDSWGQGTQVIVAS
VL: QAVVTQEPSLSVSPGGTVTLTCGLSSGSVTSSHYPGWYQQTPGQAPRLLIFNTNSRHSGVPSRFSGSISGNKAALTITGAQPEDEADYYCALLNIDDGSTMFGGGTHLTVLG
notes: Llama-derived Fab

- IC50 (read off the curve) [2]: ~0.04 µg/mL
- koff [3]: 0.00016 s⁻¹
B13: 24F2 Fab (Fab, V domains shown)
VH: B12 VH
VL: QSALTQPSAVSVSLGQTARITCRGDTLRNYHANWYRQKPGQAPVLVIYGDDIRPSGIPERFSGSRLGGTATLTVSGAQAEDEADYYCQSSDSSGYRVVFGGGTKLTVLG
notes: Llama-derived Fab
